According to patent US20230365711A1 (Hoffmann-La Roche, published 2023):
Changes are numbered by the printed parent chain. Names may count otherwise. Each block holds one binder with its values, some of them ahead of it.

Key:
[1] = target: T1, human carcinoembryonic antigen (CEA), membrane-bound on cells (human, UniProt P06731 35-685); experiment: flow cytometry on MKN45 cells, IgG1/kappa
T1 construct: whole, on cells; also called CEACAM-5; CD66e
T1 sequence (looked up): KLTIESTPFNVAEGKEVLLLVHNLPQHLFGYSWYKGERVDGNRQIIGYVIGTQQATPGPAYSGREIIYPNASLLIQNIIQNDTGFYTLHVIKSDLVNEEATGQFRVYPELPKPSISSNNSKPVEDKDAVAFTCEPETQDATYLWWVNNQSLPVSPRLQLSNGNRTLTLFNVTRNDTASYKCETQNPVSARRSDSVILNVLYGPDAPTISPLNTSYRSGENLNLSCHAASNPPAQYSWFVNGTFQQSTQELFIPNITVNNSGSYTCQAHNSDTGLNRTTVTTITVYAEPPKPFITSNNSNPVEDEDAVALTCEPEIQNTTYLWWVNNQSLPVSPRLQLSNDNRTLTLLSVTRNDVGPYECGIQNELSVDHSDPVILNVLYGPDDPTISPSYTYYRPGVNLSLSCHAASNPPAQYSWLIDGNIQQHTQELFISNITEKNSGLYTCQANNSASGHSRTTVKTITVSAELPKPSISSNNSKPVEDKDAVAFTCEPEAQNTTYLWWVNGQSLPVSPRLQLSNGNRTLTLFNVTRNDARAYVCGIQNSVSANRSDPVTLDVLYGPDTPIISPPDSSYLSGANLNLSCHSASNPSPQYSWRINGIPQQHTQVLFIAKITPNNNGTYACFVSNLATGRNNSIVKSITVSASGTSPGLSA
Method: An affinity matured heavy chain variable region construct, CH7A rF9, and an affinity matured light chain variable region construct, CL1A rH11, were paired with the parent light chain variable region construct and the heavy chain variable region construct, respectively, and with each other. All antibodies were converted into human IgG1/kappa and binding to the CEA-positive cell-line MKN45 was measured by flow cytometry. […] The matured light chain shifts the EC50 values to lower numbers, whereas the matured heavy chains (rF9 in FIG. 6, and rB9 in FIG. 15) shift the total fluorescence signal intensity in a flow-cytometry measurement. […] The combination of these two chains increases the affinity even further.

[2] = target: T2, huNABA-avi-his (hybrid protein N-A1-B3-A2: N and A1 domains of human BGP, B3 domain of human CEA, A2 domain … (human, biotinylated at the avi tag (in vivo, co-transfected biotin ligase))); experiment: Proteon SPR, antibody analyte on biotinylated NABA (Neutravidin chip); column Ka (M)
T2 construct: also called NABA-avi-his reagent; biotinylated NABA
T2 chain: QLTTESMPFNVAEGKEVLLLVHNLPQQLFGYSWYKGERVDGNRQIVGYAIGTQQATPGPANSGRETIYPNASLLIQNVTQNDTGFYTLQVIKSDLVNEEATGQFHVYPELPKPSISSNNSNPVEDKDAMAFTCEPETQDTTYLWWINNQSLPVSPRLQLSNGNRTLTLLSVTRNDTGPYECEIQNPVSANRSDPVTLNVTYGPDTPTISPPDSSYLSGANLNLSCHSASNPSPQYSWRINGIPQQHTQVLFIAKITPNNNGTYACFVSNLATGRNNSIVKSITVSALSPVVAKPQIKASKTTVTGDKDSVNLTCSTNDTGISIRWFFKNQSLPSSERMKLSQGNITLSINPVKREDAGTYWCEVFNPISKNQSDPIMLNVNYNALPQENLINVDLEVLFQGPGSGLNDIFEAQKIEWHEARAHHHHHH
Description: (§1) Proteon (Biacore) sensorgrams were obtained for the binding of the combined framework and CDR-H3 variants to the CEA antigen-harbouring chimeric protein NABA. […] The precursor clone 5L1A10 and the parental antibody CH7A were included for direct comparison. All antibodies tested in this assay had 2F1 as the light chain FIG. 25.

[3] = target: T2, huNABA-avi-his (hybrid protein …); experiment: Proteon SPR, antibody analyte on biotinylated NABA (Neutravidin chip)
Description: as §1

[4] = target: T2, huNABA-avi-his (hybrid protein …); experiment: Biacore on immobilized NABA-avi-his; Bivalent Affinity
[5] = target: T2, huNABA-avi-his (hybrid protein …); experiment: Proteon SPR, antibody analyte on biotinylated NABA (Neutravidin chip)
Description: (§2) Shown in FIG. 22 are Proteon (Biacore) sensorgrams obtained for the binding of the CDR-H3 antibody variants to the CEA antigen-harbouring chimeric protein NABA. […] The affinity matured precursor clone 5HFF12 and the parental antibody CH7A were included for direct comparison. All antibodies tested in this assay had 2F1 as the light chain. […] The relative affinity of each, measured in the bivalent form, is as follows: 5HFF12>CH7A (Y98A/D99Y)>CH7A (Y98A)>CH7A>CH7A (E102Q)>CH7A (D99Y)>CH7A (D99H)>CH7A (A103T)>CH7A (V101F)>CH7A (W95Y).

[6] = target: T2, huNABA-avi-his (hybrid protein …); experiment: Proteon SPR, antibody analyte on biotinylated NABA (Neutravidin chip); column Ka (M)
[7] = target: T2, huNABA-avi-his (hybrid protein …); experiment: as above
Description: as §2

[8] = target: T2, huNABA-avi-his (hybrid protein …); experiment: Proteon SPR, antibody analyte on biotinylated NABA (Neutravidin chip)
[9] = target: T2, huNABA-avi-his (hybrid protein …); experiment: Biacore, Fab on immobilized NABA-avi-his; column Monovalent Affinity
[10] = target: T2, huNABA-avi-his (hybrid protein …); experiment: Biacore SPR, Fab; antigen not named on the sheet, NABA-avi-his per paragraph 230
[11] = target: T2, huNABA-avi-his (hybrid protein …); experiment: Biacore, column Affinity, CDR-L1 and CDR-L2 rows; antigen not named on the sheet, NABA-avi-his per paragraph 230
[12] = target: T1, human carcinoembryonic antigen (CEA), …; experiment: FACS on MKN45 cells

EC50 (read off the curve) [1]: ~0.5 µg/mL
B1: antibody with affinity matured heavy chain variable region CH7A rF9 and affinity matured light chain variable region CL1A rH11 (antibody, V domains shown)
VH: QVQLVQSGSELKKPGASVKVSCKASGYTFTEYGMNWVRQAPGQGLEWMGWINTKSGEATYVEEFKGRFVFSLDTSVSTAYLQISSLKAEDTAVYYCARWDFYDYVEAMDYWGQGTTVTVSS
VL: DIQMTQSPSSLSASVGDRVTITCKASQTVSANVAWYQQKPGKAPKLLIYLASYRYRGVPSRFSGSGSGTDFTLTISSLQPEDFATYYCHQYYTYPLFTFGQGTKLEIK
notes: The suffix G2(1) is not explained; also called CH7ArF9 CL1A rH11; CH7Arf9, CL1A rH11G2(1)

kon [2]: 369000 M⁻¹ s⁻¹
Kd [3]: 1.97 nM
Kd [4]: 0.952 nM
koff [4]: 0.00041 s⁻¹
kon [4]: 423000 M⁻¹ s⁻¹
Kd [5]: 1.07 nM
kon [6]: 122000 M⁻¹ s⁻¹
kon [7]: 132000 M⁻¹ s⁻¹
Kd [8]: 1.84 nM
B2: humanized PR1A3 antibody with heavy chain variable region CH7A and light chain variable region 2F1 (antibody, V domains shown)
VH: B1 VH with Y32F, S55T
VL: DIQMTQSPSSLSASVGDRVTITCKASAAVGTYVAWYQQKPGKAPKLLIYSASYRKRGVPSRFSGSGSGTDFTLTISSLQPEDFATYYCHQYYTYPLFTFGQGTKLEIKR
notes: Measured in the bivalent form; also called CH7Ax2F1; parental antibody CH7A

Kd [9]: 220 nM
koff [9]: 0.0207 s⁻¹
kon [9]: 95700 M⁻¹ s⁻¹
Kd [10]: 216 nM
Kd [11]: 220 nM
B3: anti-CEA Fab with unmatured heavy chain CH7A and affinity matured light chain CL1A pAC18 (Fab, V domains shown)
VH: B1 VH with Y32F, S55T
VL: B2 VL
notes: Fab format, bacterially expressed; also called CH7A + CL1A pAC18

Kd [9]: 96 nM
koff [9]: 0.0035 s⁻¹
kon [9]: 36400 M⁻¹ s⁻¹
Kd [10]: 96 nM
B4: anti-CEA Fab with affinity matured heavy chain CH7A H4E9 and affinity matured light chain CL1A pAC18 (Fab, V domains shown)
VH: B1 VH with Y32F, S55T, V61I
VL: B2 VL
notes: Fab format, bacterially expressed; also called CH7A H4E9 and CL1A pAC18

kon [2]: 481000 M⁻¹ s⁻¹
Kd [3]: 0.465 nM
Kd [5]: 0.186 nM
kon [7]: 236000 M⁻¹ s⁻¹
B5: antibody with heavy chain CH7A (Y98A/D99Y) and light chain 2F1 (antibody, V domains shown)
VH: B1 VH with Y32F, S55T, Y102A, D103Y
VL: B2 VL
notes: Bivalent form; also called double mutant (Y98A/D99Y)

EC50 (read off the curve) [1]: ~0.7 µg/mL
B6: antibody with affinity matured heavy chain variable region CH7A rF9 and parent light chain variable region CL1A (antibody, human IgG1, V domains shown)
VH: B1 VH
VL: B1 VL with T28N, S30G, A31T, L50S, R56S
notes: also called CH7A rF9, CL1A

EC50 (read off the curve) [12]: ~1 µg/mL
kon [6]: 81900 M⁻¹ s⁻¹
Kd [8]: 4.24 nM
B7: anti-CEA antibody with heavy chain CH1A1 and light chain 2F1 (antibody, V domains shown)
VH: QVQLVQSGAEVKKPGASVKVSCKASGYTFTEFGMNWVRQAPGQGLEWMGWINTKTGEATYVEEFKGRVTFTLDTSTSTAYMELRSLRSDDTAVYYCARWDFYDYVEAMDYWGQGTTVTVSS
VL: B2 VL
notes: CH1A with M69F/T71L double point mutation; also called precursor clone CH1A1

EC50 (read off the curve) [12]: ~1 µg/mL
kon [6]: 70800 M⁻¹ s⁻¹
Kd [8]: 7.58 nM
B8: anti-CEA antibody with heavy chain CH1A1F and light chain 2F1 (antibody, V domains shown)
VH: B7 VH with F70M, L72T, M81L
VL: B2 VL

EC50 (read off the curve) [12]: ~1 µg/mL
kon [6]: 81800 M⁻¹ s⁻¹
Kd [8]: 5.91 nM
B9: anti-CEA antibody with heavy chain CH1A1A and light chain 2F1 (antibody, V domains shown)
VH: B7 VH with L72T
VL: B2 VL

kon [2]: 711000 M⁻¹ s⁻¹
Kd [3]: 0.507 nM
B10: CH1A1B (Y98A/D99Y) 2F1 (antibody, V domains shown)
VH: B7 VH with Q3K, V5Q, F70M, L72T, Y102A, D103Y
VL: B2 VL

EC50 (read off the curve) [12]: ~1 µg/mL
kon [6]: 53100 M⁻¹ s⁻¹
Kd [8]: 9.28 nM
B11: anti-CEA antibody with heavy chain CH1A1D and light chain 2F1 (antibody, V domains shown)
VH: B7 VH with A16E, S17T, V20I, F70M, L72T
VL: B2 VL

EC50 (read off the curve) [12]: ~1 µg/mL
kon [6]: 44900 M⁻¹ s⁻¹
Kd [8]: 13 nM
B12: anti-CEA antibody with heavy chain CH1A1C and light chain 2F1 (antibody, V domains shown)
VH: B7 VH with A9P, V11L, F70M, L72T
VL: B2 VL

EC50 (read off the curve) [12]: ~1 µg/mL
kon [6]: 53700 M⁻¹ s⁻¹
Kd [8]: 8.9 nM
B13: anti-CEA antibody with heavy chain CH1A1B and light chain 2F1 (antibody, V domains shown)
VH: B7 VH with Q3K, V5Q, F70M, L72T
VL: B2 VL

kon [2]: 628000 M⁻¹ s⁻¹
Kd [3]: 0.537 nM
B14: CH1A1A (Y98A/D99Y) 2F1 (antibody, V domains shown)
VH: B7 VH with L72T, Y102A, D103Y
VL: B2 VL
notes: also called CH1A1A (98/99); CH1A1A (Y98A/D99Y)x2F1
